According to article PMC9929473, “Ensembles of human myosin-19 bound to calmodulin and regulatory light chain RLC12B drive multimicron transport” (The Journal of Biological Chemistry, 2023):

Assays:
[1] = target: Myo19-3xIQ-BioTag (human myosin-19 motor domain and IQ region with N-terminal FLAG tag and C-terminal biotin tag) (human) (UniProt Q96H55)
[2] = target: Myo19-3xIQ-BioTag (human myosin-19 motor domain and IQ region with N-terminal FLAG tag and C-terminal biotin tag) (human) (UniProt Q96H55); test: SEC-MALS; complex fixed with glutaraldehyde during 5 to 30% glycerol gradient centrifugation (GraFix; 20 mM Hepes pH 7.5, 0.2 M NaCl, 5 mM MgCl2, 1 mM EGTA, 4 °C, without calcium), then TSKgel SuperSW2000 with MALS
[3] = target: Myo19-3xIQ-BioTag (human myosin-19 motor domain and IQ region with N-terminal FLAG tag and C-terminal biotin tag) (human) (UniProt Q96H55); test: co-sedimentation; as a4 with 1.1 mM CaCl2 added (0.1 mM free Ca2+)
[4] = target: Myo19-3xIQ-BioTag (human myosin-19 motor domain and IQ region with N-terminal FLAG tag and C-terminal biotin tag) (human) (UniProt Q96H55); remark: listed apart in the source
[5] = target: Myo19-3xIQ-BioTag (human myosin-19 motor domain and IQ region with N-terminal FLAG tag and C-terminal biotin tag) (human) (UniProt Q96H55); test: co-sedimentation; about 2 μM Myo19-3xIQ-BioTag preparation, 4 μM F-actin, 10 μM CaM in S-Buffer (15 mM Hepes pH 7.5, 7 mM imidazole, 125 mM NaCl, 5 mM MgCl2, 1 mM EGTA, 1 mM DTT), 200,000g 20 min; pellet on SDS-PAGE, gel densitometry with BSA, RLC12B and CaM standards; no calcium
[6] = target: Myo19-3xIQ-BioTag (human myosin-19 motor domain and IQ region with N-terminal FLAG tag and C-terminal biotin tag) (human) (UniProt Q96H55); remark: listed apart in the source
[7] = target: T1, Myo19-3xIQ-BioTag (human myosin-19 motor domain and IQ region with N-terminal FLAG tag and C-terminal biotin … (human, UniProt Q96H55 1-851, biotinylated on the BioTag during expression)); test: SEC-MALS; complex fixed with glutaraldehyde during 5 to 30% glycerol gradient centrifugation (GraFix; 20 mM Hepes pH 7.5, 0.2 M NaCl, 5 mM MgCl2, 1 mM EGTA, 4 °C, without calcium), then TSKgel SuperSW2000 with MALS; conditions: both partners purified
T1 construct: also called HC; biotinylated Myo19; not shown: biotin tag (BioTag), C-terminal, kept

[8] = target: T1, Myo19-3xIQ-BioTag (human myosin-19 …); test: co-sedimentation; about 2 μM Myo19-3xIQ-BioTag preparation, 4 μM F-actin, 10 μM CaM in S-Buffer (15 mM Hepes pH 7.5, 7 mM imidazole, 125 mM NaCl, 5 mM MgCl2, 1 mM EGTA, 1 mM DTT), 200,000g 20 min; pellet on SDS-PAGE, gel densitometry with BSA, RLC12B and CaM standards; no calcium; conditions: both partners purified

Question: What does the source list for “Calmodulin (CaM) coexpressed with Myo19-3xIQ-BioTag in Sf9 cells and added in excess (from UniProt P0DP23 1-149) (natural protein)”?
Answer: actin gliding speed of Myo19 coexpressed with CaM alone against added CaM in the presence of 1 μM RLC12B; EC50 of a hyperbolic fit [1]: 0.2 µM; actin gliding speed of Myo19 coexpressed with CaM alone against added CaM; EC50 of a hyperbolic fit [1]: 0.2 µM; stoichiometry N [2]: 2; CaM:RLC12B ratio bound to Myo19-3xIQ (CaM per RLC12B) [3]: 2.8; actin gliding speed of Myo19-3xIQ-BioTag (copurified with RLC12B and CaM) against added CaM, 37 °C, no calcium; EC50 of a hyperbolic fit [4]: 0.7 µM; CaM to RLC12B ratio bound to Myo19-3xIQ (CaM per RLC12B) [5]: 1.9; stoichiometry N [5]: 3.4; actin gliding speed with 0.1 mM free calcium against added CaM (0.1 to 10 μM CaM–Ca2+); highest speed at 4 μM [6]: 210 nm/s

Question: Which actin gliding speed when 1 μM RLC12B was added in solution in the presence of CaM [1] does the source give for “RLC12B purified from E. coli (MBP removed by TEV protease) (from UniProt O14950 1-172) (natural protein)” here?
Answer: 250 nm/s

Question: And the actin gliding speed of Myo19-3xIQ-BioTag (copurified with RLC12B and CaM) against added RLC12B alone, 37 °C; maximal speed at 1 μM RLC12B [4]?
Answer: 150 nm/s

Question: What about the actin gliding speed with 4 μM CaM fixed against increasing RLC12B; IC50 of an inhibition fit [4] of the same molecule?
Answer: 0.2 µM

B1: RLC12B coexpressed with Myo19-3xIQ-BioTag in Sf9 cells (natural protein, human, UniProt O14950 1-172, looked up)
chain: MSSKKAKTKTTKKRPQRATSNVFAMFDQSQIQEFKEAFNMIDQNRDGFIDKEDLHDMLASLGKNPTDAYLDAMMNEAPGPINFTMFLTMFGEKLNGTDPEDVIRNAFACFDEEATGTIQEDYLRELLTTMGDRFTDEEVDELYREAPIDKKGNFNYIEFTRILKHGAKDKDD
notes: Myosin regulatory light chain 12B (RLC12B), O14950-1; also called MYL12B; source: Sf9-baculovirus, coexpressed and copurified with Myo19-3xIQ-BioTag
Question: For B1, which “stoichiometry N” value [7] is on record?
Answer: 1

Question: What about the “stoichiometry N” value [8] of the same molecule?
Answer: 1.8
